Data from PMC12477886.

Target: SARS-CoV-2 WA1/2020 S2 protein (stabilized prefusion spike S2 trimer) (SARS-CoV-2 (USA-WA1/2020)) (UniProt P0DTC2)
Test: cryo-EM structure

SARS-CoV-2 WA1/2020 S2 protein (stabilized prefusion spike S2 trimer) (from UniProt P0DTC2) (domain or fragment)
stoichiometry N: 3
